Test results reported in paper doi:10.1101/2022.08.14.503891 (bioRxiv, 2022).
Several values for one entry are separate records, joined by “and”; a condition that tells them apart may be missing. Equal entries are not always repeated. Values belong to the molecule of their own block, whether it stands above or below them.

Experiments:
[1] = biological target: mɑAXL (mouse); assay: SPR
[2] = biological target: human Quiescin Sulfhydryl Oxidase 1 (residues 34–546 of HsQSOX1) (human, UniProt O00391); assay: enzyme inhibition
[3] = biological target: biotinylated lysozyme (GeneTex) (Gallus gallus (hen egg white), UniProt P00698, biotin); assay: flow cytometry on cells
[4] = biological target: hen-egg white lysozyme (Sigma) (Gallus gallus (hen egg white), UniProt P00698); assay: SPR
Sequence of hen-egg white lysozyme (Sigma) (P00698 19-147): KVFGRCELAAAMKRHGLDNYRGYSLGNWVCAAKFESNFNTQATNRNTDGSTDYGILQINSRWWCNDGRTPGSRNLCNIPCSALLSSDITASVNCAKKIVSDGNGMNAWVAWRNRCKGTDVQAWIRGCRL

Sequence of human Quiescin Sulfhydryl Oxidase 1 (residues 34–546 of HsQSOX1) (O00391 34-546): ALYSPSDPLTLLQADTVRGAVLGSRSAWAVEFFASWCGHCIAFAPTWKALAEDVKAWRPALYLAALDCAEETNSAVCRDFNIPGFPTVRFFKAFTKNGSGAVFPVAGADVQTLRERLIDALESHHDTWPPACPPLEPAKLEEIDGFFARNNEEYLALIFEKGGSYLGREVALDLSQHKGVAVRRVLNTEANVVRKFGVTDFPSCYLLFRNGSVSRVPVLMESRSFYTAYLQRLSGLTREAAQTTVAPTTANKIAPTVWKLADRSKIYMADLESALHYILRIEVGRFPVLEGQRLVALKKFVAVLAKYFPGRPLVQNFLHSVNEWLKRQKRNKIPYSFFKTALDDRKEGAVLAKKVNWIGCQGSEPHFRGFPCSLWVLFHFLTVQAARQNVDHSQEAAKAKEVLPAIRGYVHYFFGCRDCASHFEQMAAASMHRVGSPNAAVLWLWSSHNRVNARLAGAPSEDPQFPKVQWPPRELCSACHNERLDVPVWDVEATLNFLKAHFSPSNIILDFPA
Sequence of biotinylated lysozyme (GeneTex) (P00698 19-147): as the sequence (P00698 19-147) above

- Kd [1]: 0.95 nM
- koff [1]: 0.000524 s⁻¹
- kon [1]: 550000 M⁻¹ s⁻¹
Molecule: AXL (R&D systems) (from UniProt P30530) (receptor)

- binding result [2]: binds
B1: murine monoclonal antibody mAb492.1 (antibody, V domains shown)
VH: QVQLKQSGPGLVAPSQSLSITCTVSGFSLTGYGVNWVRQSPGKGLEWLGMIWGDGRTDYKSALKSRLSITKDNSKSQVFLKMNSLQTDDTARYFCASDYYGSGSFAYWGQGTLVTVSA
VL: DVVMTQSHKFMSTSVGDRVSITCKASQDVSTAVAWYQQKSGQSPKLLIHSASYRYTGVPDRFTGSGSGTDFTFTISSVQAEDLAVYYCQQHYSIPLTFGAGTKLELK

- binding result [3]: binds
B2: CUMAb design 6 of D44.1 formatted as scFv (scFv, V domains shown)
VH: EVQLVQSGAEVKKPGATVKISCKVSGYTFSTYWMEWVQQAPGKGLEWMGEVLPGSGSTYYAEKFQGRVTITADTSTDTAYMELSSLRSEDTAVYYCARGDGYFQHWGQGTLVTVSS
VL: EIVLTQSPDFQSVTPKEKVTITCRASQSISSNLHWYQQKPDQSPKLLIKYASQSFSGVPSRFSGSGSGTDFTLTINSLEAEDAATYYCHQSNSWPRTFGPGTKVDIK

- Kd [4]: 42 nM and 44 nM
- koff [4]: 0.16 s⁻¹
- kon [4]: 3.9e+06 M⁻¹ s⁻¹
B3: hɑHEWL Fab (design 1 as a human IgG1 Fab) (Fab, V domains shown)
VH: B2 VH
VL: DIQMTQSPSSLSASVGDRVTITCRASQSISSNLNWYQQKPGKAPKLLIYYASSLQSGVPSRFSGSGSGTDFTLTISSLQPEDFATYYCQQSNSWPRTFGPGTKVDIK
